Test results reported in PMC2172667 (The Journal of Cell Biology, 2003).

Target: the molecule itself
Assay: AUC + SEC

B1: his-EPLIN-α (natural protein)
chain: MENCLGESRHEVEKSEISENTDASGKIEKYNVPLNRLKMMFEKGEPTQTKILRAQSRSASGRKISENSYSLDDLEIGPGQLSSSTFDSEKNESRRNLELPRLSETSIKDRMAKYQAAVSKQSSSTNYTNELKASGGEIKIHKMEQKENVPPGPEVCITHQEGEKISANENSLAVRSTPAEDDSRDSQVKSEVQQPVHPKPLSPDSRASSLSESSPPKAMKKFQAPARETCVECQKTVYPMERLLANQQVFHISCFRCSYCNNKLSLGTYASLHGRIYCKPHFNQLFKSKGNYDEGFGHRPHKDLWASKNENEEILERPAQLANARETPHSPGVEDAPIAKVGVLAASMEAKASSQQEKEDKPAETKKLRIAWPPPTELGSSGSALEEGIKMSKPKWPPEDEISKPEVPEDVDLDLKKLRRSSSLKERSRPFTVAASFQSTSVKSPKTVSPPIRKGWSMSEQSEESVGGRVAERKQVENAKASKKNGNVGKTTWQNKESKGETGKRSKEGHSLEMENENLVENGADSDEDDNSFLKQQSPQEPKSLNWSSFVDNTFAEEFTTQNQKSQDVELWEGEVVKELSVEEQIKRNRYYDEDEDEE
stoichiometry N: ~8 polypeptides
